Test results published in the Human Domainome abundance scans (Beltran et al. 2025).
± gives the uncertainty stated by the source.

B1: Integrator complex subunit 12, residues 155 to 213; numbered along this chain, Q96CB8 (parent)
chain: AMEMGLACVVCRQMMVASGNQLVECQECHNLYHRDCHKPQVTDKEANDPRLVWYCARCT

Variants of: B1
Test: abundance fitness (aPCA) (normalised: wild type 0, dead -1); higher = more abundant; growth selection in yeast, the domain comes from the species named
Conditions: Homo sapiens

Abundance fitness of substitutions, site by site:
D35: K -0.087 ± 0.057; E 0.107 ± 0.051; C -0.045 ± 0.033; I -0.079 ± 0.035; H 0.071 ± 0.036; G 0.013 ± 0.033; A 0.054 ± 0.036
E24: Y -0.493 ± 0.052; W -0.563 ± 0.096; M -0.397 ± 0.085; N -0.308 ± 0.044; T -0.157 ± 0.055; R -0.094 ± 0.049; H -0.226 ± 0.056; C -0.219 ± 0.043; L -0.376 ± 0.046; G -0.3 ± 0.043; D -0.117 ± 0.045; S -0.236 ± 0.036; K -0.205 ± 0.083; F -0.459 ± 0.041; V -0.262 ± 0.039; Q -0.088 ± 0.086; I -0.387 ± 0.041; A -0.123 ± 0.049
C25: T -0.622 ± 0.12; K -0.915 ± 0.19; L -0.866 ± 0.09; Q -0.458 ± 0.18; E -0.824 ± 0.14; N -0.773 ± 0.11; P -0.869 ± 0.19; I -0.906 ± 0.1; V -0.819 ± 0.082; G -0.66 ± 0.078; H -0.72 ± 0.11; S -0.662 ± 0.065; D -0.655 ± 0.074; R -0.714 ± 0.084; M -0.792 ± 0.17; W -0.959 ± 0.25
N30: Q 0.028 ± 0.084; W -0.091 ± 0.086; F -0.179 ± 0.045; H -0.049 ± 0.065; S -0.071 ± 0.043; V -0.129 ± 0.039; K 0.048 ± 0.095; P -0.706 ± 0.11; I -0.231 ± 0.041; Y -0.081 ± 0.045; E -0.103 ± 0.072; T -0.105 ± 0.058; C 0.013 ± 0.044; L -0.002 ± 0.047; R -0.01 ± 0.04; D 0.079 ± 0.041; G 0.03 ± 0.039
S18: I -0.129 ± 0.037; N 0.015 ± 0.035; P 0.077 ± 0.055; F -0.124 ± 0.034; V -0.102 ± 0.032; Q 0.001 ± 0.062; T 0.037 ± 0.037; C -0.135 ± 0.035; L -0.107 ± 0.035; K 0.009 ± 0.056; A 0.017 ± 0.036; E -0.001 ± 0.055; G -0.002 ± 0.032; R -0.066 ± 0.036; H 0.014 ± 0.046; W -0.34 ± 0.058; Y -0.183 ± 0.038; M -0.078 ± 0.057; D 0.043 ± 0.035
A17: T -0.065 ± 0.044; Y -0.091 ± 0.044; Q 0.069 ± 0.09; F -0.233 ± 0.04; E -0.04 ± 0.074; D -0.211 ± 0.044; R -0.03 ± 0.038; K 0.037 ± 0.06; N 0.001 ± 0.039; W -0.388 ± 0.08; S 0.006 ± 0.035; P 0.005 ± 0.061; M -0.049 ± 0.061; C -0.048 ± 0.038; V -0.075 ± 0.035; L -0.179 ± 0.041; I -0.098 ± 0.038
L22: Y 0.039 ± 0.04; M -0.006 ± 0.074; C -0.03 ± 0.035; H -0.001 ± 0.049; R -0.153 ± 0.037; E -0.353 ± 0.097; I -0.036 ± 0.042; P -0.115 ± 0.07; G 0.013 ± 0.035; T -0.084 ± 0.049; W -0.113 ± 0.05; V -0.003 ± 0.039; K 0.01 ± 0.078; Q -0.297 ± 0.12; F 0.014 ± 0.036; N -0.042 ± 0.045; D -0.292 ± 0.048
M15: Y -0.025 ± 0.034
C28: K -0.648 ± 0.072; Q -0.801 ± 0.08; M -0.835 ± 0.064; T -0.749 ± 0.052; D -0.576 ± 0.043; Y -0.714 ± 0.04; W -0.891 ± 0.058; R -0.816 ± 0.042; H -0.664 ± 0.047; S -0.68 ± 0.034; E -0.845 ± 0.075; F -0.818 ± 0.052; A -0.616 ± 0.049; L -0.773 ± 0.048; V -0.845 ± 0.04; I -0.954 ± 0.054; P -0.787 ± 0.081; N -0.561 ± 0.039; G -0.519 ± 0.033
Q26: A 0.007 ± 0.046; Y -0.017 ± 0.051; M -0.184 ± 0.08; V -0.059 ± 0.043; F -0.062 ± 0.046; H -0.012 ± 0.077; C -0.038 ± 0.049; E -0.013 ± 0.086; R -0.008 ± 0.042; W -0.117 ± 0.065; L -0.111 ± 0.049; I -0.155 ± 0.043; G 0.039 ± 0.053; D -0.147 ± 0.068; T -0.052 ± 0.048; N 0.013 ± 0.051; K -0.039 ± 0.062; P -0.014 ± 0.06; S -0.045 ± 0.039
Q21: K -0.123 ± 0.067; G -0.018 ± 0.035; F -0.078 ± 0.04; E -0.067 ± 0.062; Y -0.117 ± 0.039; P -0.072 ± 0.082; H 0 ± 0.05; V -0.068 ± 0.041; N -0.056 ± 0.042; R 0.004 ± 0.045; M 0.079 ± 0.085; D -0.008 ± 0.041; S 0.019 ± 0.035; A -0.026 ± 0.049; I -0.091 ± 0.046; W -0.223 ± 0.065; T 0.084 ± 0.057
E27: L -0.105 ± 0.034; P -0.67 ± 0.06; V -0.184 ± 0.031; C -0.107 ± 0.034; S -0.007 ± 0.03; N -0.009 ± 0.036; Q -0.096 ± 0.083; K 0.087 ± 0.063; D -0.049 ± 0.036; F -0.143 ± 0.035; R -0.001 ± 0.034; T -0.036 ± 0.039; G -0.043 ± 0.031; A -0.044 ± 0.036; M -0.103 ± 0.054; Y -0.208 ± 0.034
G19: V -0.088 ± 0.035; P -0.069 ± 0.095; F -0.353 ± 0.05; T -0.026 ± 0.068; Q -0.175 ± 0.11; H -0.072 ± 0.047; A -0.042 ± 0.042; D 0.031 ± 0.042; Y -0.167 ± 0.063; S -0.044 ± 0.04; N -0.014 ± 0.05; E 0.058 ± 0.065; K 0.065 ± 0.078; I -0.137 ± 0.051; W -0.286 ± 0.065; R -0.116 ± 0.039; M -0.206 ± 0.078
Y32: F 0.003 ± 0.035; H -0.254 ± 0.047; P -0.611 ± 0.056; A -0.128 ± 0.039; S -0.315 ± 0.033; R -0.308 ± 0.038; W 0.045 ± 0.058; E -0.388 ± 0.068; L -0.152 ± 0.038; D -0.525 ± 0.044; K -0.514 ± 0.066; T -0.263 ± 0.044; C -0.207 ± 0.04; G -0.335 ± 0.035; M -0.143 ± 0.055; Q -0.3 ± 0.067; V -0.159 ± 0.032
V16: E 0.029 ± 0.054; Q -0.013 ± 0.072; W -0.148 ± 0.055; N 0.016 ± 0.036; S 0.011 ± 0.03; L -0.022 ± 0.037; G 0.037 ± 0.031; P -0.002 ± 0.05; A 0.042 ± 0.036; F -0.02 ± 0.035; T 0.044 ± 0.044; Y -0.144 ± 0.035; K 0.03 ± 0.065; C -0.029 ± 0.035; R 0.019 ± 0.035; D 0.017 ± 0.036; I -0.089 ± 0.035
H29: L -0.275 ± 0.039; Y -0.182 ± 0.037; K 0.084 ± 0.073; W -0.426 ± 0.066; V -0.438 ± 0.035; P -0.612 ± 0.057; D -0.26 ± 0.035; M -0.097 ± 0.058; N -0.117 ± 0.036; F -0.19 ± 0.036; T -0.216 ± 0.042; G -0.016 ± 0.03; C -0.185 ± 0.037; R -0.053 ± 0.033
L31: A 0.04 ± 0.033; E -0.358 ± 0.059; R 0.091 ± 0.034; S 0.046 ± 0.032; Y 0.047 ± 0.038; N 0.027 ± 0.036; K 0.103 ± 0.055; I 0.01 ± 0.036; G -0.048 ± 0.03; F 0.075 ± 0.034; Q 0.084 ± 0.07; M -0.008 ± 0.051; W 0.101 ± 0.049; T 0.055 ± 0.039; P -0.164 ± 0.052; C 0.047 ± 0.035; H 0.057 ± 0.04
H33: I -0.873 ± 0.047; A -0.609 ± 0.039; K -0.542 ± 0.068; S -0.721 ± 0.036; Q -0.769 ± 0.084; W -1.21 ± 0.14; C 0.013 ± 0.035; N -0.584 ± 0.04; R -0.638 ± 0.043; L -0.869 ± 0.044; T -0.85 ± 0.057; G -0.668 ± 0.037; V -0.767 ± 0.037; D -0.547 ± 0.039; P -0.72 ± 0.051; E -0.483 ± 0.059; M -0.882 ± 0.084; Y -0.795 ± 0.047
N20: R -0.045 ± 0.038; V -0.049 ± 0.032; S -0.036 ± 0.03; D 0.005 ± 0.036; K 0.02 ± 0.072; E -0.007 ± 0.075; M -0.387 ± 0.069; W -0.281 ± 0.062; L -0.219 ± 0.035; A -0.03 ± 0.035; P -0.011 ± 0.048; Y -0.171 ± 0.034; I -0.089 ± 0.035; H -0.015 ± 0.038; F -0.165 ± 0.035; C -0.098 ± 0.035; G -0.05 ± 0.032; T -0.007 ± 0.038
R34: F 0.016 ± 0.076; I -0.019 ± 0.055; C -0.17 ± 0.087; H -0.083 ± 0.067; T 0.005 ± 0.064; V -0.018 ± 0.051; G 0.066 ± 0.086; A -0.054 ± 0.062; P 0.067 ± 0.08; M 0.005 ± 0.057; K 0.229 ± 0.068; E -0.016 ± 0.12; L 0.037 ± 0.045; Y 0.058 ± 0.073; S 0.009 ± 0.052; W 0.143 ± 0.1; Q 0.082 ± 0.066
V23: A -0.179 ± 0.039; Y -0.046 ± 0.037; Q -0.098 ± 0.06; T -0.158 ± 0.042; W -0.045 ± 0.055; P -0.518 ± 0.046; G -0.528 ± 0.038; C -0.103 ± 0.032; H -0.075 ± 0.044; L 0.006 ± 0.032; F -0.021 ± 0.033; N -0.228 ± 0.037; E -0.251 ± 0.067; K -0.164 ± 0.055; D -0.296 ± 0.042; I 0.001 ± 0.034
